The source of these data is the supplement of paper PMC5998384.

The test system of data set [1] is HeLa Kyoto. As to the kind of experiment: solubility change mitosis vs G1/S (difference of NP-40 vs SDS log2 ratios) (log2 ratio difference); higher = more soluble in mitosis.
Data set [2] concerns HeLa Kyoto. In words: solubility in G1/S (NP-40 vs SDS abundance) (log2 ratio); higher = more soluble. Particulars: cell cycle stage: G1/S.
Data set [3] has as its system HeLa Kyoto. In words: thermal stability score vs G1/S (z-score of summed log2 fold changes over temperatures); higher = more thermally stable than in G1/S.
The test system of data set [4] is HeLa Kyoto. As to the kind of experiment: melting temperature (median over replicates), in situ; higher = more thermally stable.
Setting [5] is: cell cycle stage: early G1 (4.5 h after nocodazole release).
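Wherever melting temperature (median over replicates), in situ is given: HeLa Kyoto cells synchronized by double thymidine or nocodazole block, proteins quantified by TMT10plex mass spectrometry, three independent biological replicates.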
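Wherever solubility change mitosis vs G1/S (difference of NP-40 vs SDS log2 ratios) is given: synchronized HeLa Kyoto cells (double thymidine block for G1/S, nocodazole release for mitosis), protein amounts in NP-40 versus SDS lysates quantified by mass spectrometry, three biological replicates.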
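Wherever solubility in G1/S (NP-40 vs SDS abundance) is given: HeLa Kyoto cells arrested at G1/S by double thymidine block, proteins quantified by TMT10plex mass spectrometry in mild NP-40 versus SDS extracts, three biological replicates.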
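Wherever thermal stability score vs G1/S (z-score of summed log2 fold changes over temperatures) is given: synchronized HeLa Kyoto cells, proteins quantified by TMT10plex mass spectrometry, three biological replicates, mitosis taken 0.5 h after nocodazole release, G1/S directly after double thymidine block.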

“MASIMEGPLSKWTNVMKGWQYRWFVLDYNAGLLSYYTSKDKMMRGSRRGCVRLRGAVIGIDDEDDSTFTITVDQKTFHFQARDADEREKWIHALEETILRHTLQLQGLDSGFVPSVQDFDKKLTEADAYLQILIEQLKLFDDKLQNCKEDEQRKKIETLKETTNSMVESIKHCIVLLQIAKDQSNAEKHADGMISTINPVDAIYQPSPLEPVISTMPSQTVLPPEPVQLCKSEQRPSSLPVGPVLATLGHHQTPTPNSTGSGHSPPSSSLTSPSHVNLSPNTVPEFSYSSSEDEFYDADEFHQSGSSPKRLIDSSGSASVLTHSSSGNSLKRPDTTESLNSSLSNGTSDADLFDSHDDRDDDAEAGSVEEHKSVIMHLLSQVRLGMDLTKVVLPTFILERRSLLEMYADFFAHPDLFVSISDQKDPKDRMVQVVKWYLSAFHAGRKGSVAKKPYNPILGEIFQCHWTLPNDTEENTELVSEGPVPWVSKNSVTFVAEQVSHHPPISAFYAECFNKKIQFNAHIWTKSKFLGMSIGVHNIGQGCVSCLDYDEHYILTFPNGYGRSILTVPWVELGGECNINCSKTGYSANIIFHTKPFYGGKKHRITAEIFSPNDKKSFCSIEGEWNGVMYAKYATGENTVFVDTKKLPIIKKKVRKLEDQNEYESRSLWKDVTFNLKIRDIDAATEAKHRLEERQRAEARERKEKEIQWETRLFHEDGECWVYDEPLLKRLGAAKH [OSBPL9]”: in the data set on HeLa Kyoto [1], the “solubility change mitosis (log2)” value was -0.142. Moreover, in the data set on HeLa Kyoto [2], the “solubility in G1/S (log2)” value was -0.0574. The results for the thermal stability score in the data set on HeLa Kyoto [3] (setting [5]) and in the data set with HeLa Kyoto [3] (cell cycle stage: mitosis) were 0.00752 and 0.954, respectively. Also, the results for the melting temperature in the data set with HeLa Kyoto [4] (cell cycle stage: G1/S) and with HeLa Kyoto [4] (cell cycle stage: mitosis) were 48.7 °C and 49.2 °C, respectively.

For “MASLLAKDAYLQSLAKKICSHSAPEQQARTRAGKTQGSETAGPPKKKRKKTQKKFRKREEKAAEHKAKSLGEKSPAASGARRPEAAKEEAAWASSSAGNPADGLATEPESVFALDVLRQRLHEKIQEARGQGSAKELSPAALEKRRRRKQERDRKKRKRKELRAKEKARKAEEATEAQEVVEATPEGACTEPREPPGLIFNKVEVSEDEPASKAQRRKEKRQRVKGNLTPLTGRNYRQLLERLQARQSRLDELRGQDEGKAQELEAKMKWTNLLYKAEGVKIRDDERLLQEALKRKEKRRAQRQRRWEKRTAGVVEKMQQRQDRRRQNLRRKKAARAERRLLRARKKGRILPQDLERAGLV [SURF6]”, the “solubility change mitosis (log2)” value with HeLa Kyoto [1] was found to be 1.25. For the same sequence, the “solubility in G1/S (log2)” value with HeLa Kyoto [2] was -1.46. Further, the figures for the thermal stability score in the data set on HeLa Kyoto [3] (setting [5]) and with HeLa Kyoto [3] (cell cycle stage: mitosis) were -2.48 and -6.87, respectively. Further, the melting temperature in the data set with HeLa Kyoto [4] (cell cycle stage: G1/S) came out at 56.5 °C; in the data set on HeLa Kyoto [4] (cell cycle stage: mitosis), 54.5 °C.

Turning to “MASMAAAIAASRSAVMSGNRPLDDRERKRFTYFSSLSPMARKIMQDKEKIREKYGPEWARLPPAQQDEIIDRCLVGPRAPAPRDPGDSEELTRFPGLRGPTGQKVVRFGDEDLTWQDEHSAPFSWETKSQMEFSISALSIQEPSNGTAASEPRPLSKASQGSQALKSSQGSRSSSLDALGPTRKEEEASFWKINAERSRGEGPEAEFQSLTPSQIKSMEKGEKVLPPCYRQEPAPKDREAKVERPSTLRQEQRPLPNVSTERERPQPVQAFSSALHEAAPSQLEGKLPSPDVRQDDGEDTLFSEPKFAQVSSSNVVLKTGFDFLDNW [C1ORF198]”, the “solubility change mitosis (log2)” value with HeLa Kyoto [1] is 0.253. Also, in the data set on HeLa Kyoto [2], the “solubility in G1/S (log2)” value is -0.228. Moreover, the thermal stability score in the data set with HeLa Kyoto [3] (setting [5]) was -0.542; in the data set on HeLa Kyoto [3] (cell cycle stage: mitosis), -1. Also, the results for the melting temperature in the data set with HeLa Kyoto [4] (cell cycle stage: G1/S) and with HeLa Kyoto [4] (cell cycle stage: mitosis) were 51.6 °C and 53.2 °C, respectively.

In the case of “MASNDYTQQATQSYGAYPTQPGQGYSQQSSQPYGQQSYSGYSQSTDTSGYGQSSYSSYGQSQNTGYGTQSTPQGYGSTGGYGSSQSSQSSYGQQSSYPGYGQQPAPSSTSGSYGSSSQSSSYGQPQSGSYSQQPSYGGQQQSYGQQQSYNPPQGYGQQNQYNSSSGGGGGGGGGGNYGQDQSSMSSGGGSGGGYGNQDQSGGGGSGGYGQQDRGGRGRGGSGGGGGGGGGGYNRSSGGYEPRGRGGGRGGRGGMGGSDRGGFNKFGGPRDQGSRHDSEQDNSDNNTIFVQGLGENVTIESVADYFKQIGIIKTNKKTGQPMINLYTDRETGKLKGEATVSFDDPPSAKAAIDWFDGKEFSGNPIKVSFATRRADFNRGGGNGRGGRGRGGPMGRGGYGGGGSGGGGRGGFPSGGGGGGGQQRAGDWKCPNPTCENMNFSWRNECNQCKAPKPDGPGGGPGGSHMGGNYGDDRRGGRGGYDRGGYRGRGGDRGGFRGGRGGGDRGGFGPGKMDSRGEHRQDRRERPY [FUS]”, the “solubility change mitosis (log2)” value in the data set on HeLa Kyoto [1] came to 0.333. Also, the “solubility in G1/S (log2)” value with HeLa Kyoto [2] is -0.295. In addition, the thermal stability score in the data set with HeLa Kyoto [3] (setting [5]) is 0.878; in the data set on HeLa Kyoto [3] (cell cycle stage: mitosis) it was -3.18. Also, the values for the melting temperature in the data set on HeLa Kyoto [4] (cell cycle stage: G1/S) and with HeLa Kyoto [4] (cell cycle stage: mitosis) were 56.1 °C and 54.8 °C, respectively.

For “MASPPRHGPPGPASGDGPNLNNNNNNNNHSVRKCGYLRKQKHGHKRFFVLRGPGAGGDEATAGGGSAPQPPRLEYYESEKKWRSKAGAPKRVIALDCCLNINKRADAKHKYLIALYTKDEYFAVAAENEQEQEGWYRALTDLVSEGRAAAGDAPPAAAPAASCSASLPGALGGSAGAAGAEDSYGLVAPATAAYREVWQVNLKPKGLGQSKNLTGVYRLCLSARTIGFVKLNCEQPSVTLQLMNIRRCGHSDSFFFIEVGRSAVTGPGELWMQADDSVVAQNIHETILEAMKALKELFEFRPRSKSQSSGSSATHPISVPGARRHHHLVNLPPSQTGLVRRSRTDSLAATPPAAKCSSCRVRTASEGDGGAAAGAAAAGARPVSVAGSPLSPGPVRAPLSRSHTLSGGCGGRGSKVALLPAGGALQHSRSMSMPVAHSPPAATSPGSLSSSSGHGSGSYPPPPGPHPPLPHPLHHGPGQRPSSGSASASGSPSDPGFMSLDEYGSSPGDLRAFCSHRSNTPESIAETPPARDGGGGGEFYGYMTMDRPLSHCGRSYRRVSGDAAQDLDRGLRKRTYSLTTPARQRPVPQPSSASLDEYTLMRATFSGSAGRLCPSCPASSPKVAYHPYPEDYGDIEIGSHRSSSSNLGADDGYMPMTPGAALAGSGSGSCRSDDYMPMSPASVSAPKQILQPRAAAAAAAAVPSAGPAGPAPTSAAGRTFPASGGGYKASSPAESSPEDSGYMRMWCGSKLSMEHADGKLLPNGDYLNVSPSDAVTTGTPPDFFSAALHPGGEPLRGVPGCCYSSLPRSYKAPYTCGGDSDQYVLMSSPVGRILEEERLEPQATPGPSQAASAFGAGPTQPPHPVVPSPVRPSGGRPEGFLGQRGRAVRPTRLSLEGLPSLPSMHEYPLPPEPKSPGEYINIDFGEPGARLSPPAPPLLASAASSSSLLSASSPASSLGSGTPGTSSDSRQRSPLSDYMNLDFSSPKSPKPGAPSGHPVGSLDGLLSPEASSPYPPLPPRPSASPSSSLQPPPPPPAPGELYRLPPASAVATAQGPGAASSLSSDTGDNGDYTEMAFGVAATPPQPIAAPPKPEAARVASPTSGVKRLSLMEQVSGVEAFLQASQPPDPHRGAKVIRADPQGGRRRHSSETFSSTTTVTPVSPSFAHNPKRHNSASVENVSLRKSSEGGVGVGPGGGDEPPTSPRQLQPAPPLAPQGRPWTPGQPGGLVGCPGSGGSPMRRETSAGFQNGLNYIAIDVREEPGLPPQPQPPPPPLPQPGDKSSWGRTRSLGGLISAVGVGSTGGGCGGPGPGALPPANTYASIDFLSHHLKEATIVKE [IRS2]”, the “solubility change mitosis (log2)” value in the data set with HeLa Kyoto [1] was -0.0828. Further, the “solubility in G1/S (log2)” value with HeLa Kyoto [2] is -0.000472. The thermal stability score with HeLa Kyoto [3] (setting [5]) is -0.748; in the data set with HeLa Kyoto [3] (cell cycle stage: mitosis), 0.717. In addition, the melting temperature in the data set on HeLa Kyoto [4] (cell cycle stage: G1/S) was determined as 50.4 °C; in the data set with HeLa Kyoto [4] (cell cycle stage: mitosis), 50.3 °C.
